The text below walks through data of patent US20230183319A1.

Assay in all cases: cell-based or functional assay
One test concerns the target T1, BMP10 (UniProt O95393).
T1 sequence (looked up): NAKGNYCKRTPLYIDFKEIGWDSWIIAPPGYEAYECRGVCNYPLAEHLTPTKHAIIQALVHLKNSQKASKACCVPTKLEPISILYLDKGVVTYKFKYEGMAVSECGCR

The target of another test is T2, GDF11 (UniProt O95390).
T2 sequence (looked up): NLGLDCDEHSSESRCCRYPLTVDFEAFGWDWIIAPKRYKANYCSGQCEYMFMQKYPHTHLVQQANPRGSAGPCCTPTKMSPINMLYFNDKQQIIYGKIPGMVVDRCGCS

The next test has as its target T3, GDF8 (UniProt O14793).
T3 sequence (looked up): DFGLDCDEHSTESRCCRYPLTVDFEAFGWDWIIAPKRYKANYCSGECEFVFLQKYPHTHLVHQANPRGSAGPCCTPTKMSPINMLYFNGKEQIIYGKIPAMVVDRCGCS

The next test addresses T4, activin A (UniProt P08476).
T4 sequence (looked up): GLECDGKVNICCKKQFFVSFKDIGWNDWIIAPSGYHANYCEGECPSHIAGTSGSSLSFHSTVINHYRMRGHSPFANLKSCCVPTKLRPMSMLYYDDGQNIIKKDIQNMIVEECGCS

For the next test, the target named is T5, activin B (UniProt P09529).
T5 sequence (looked up): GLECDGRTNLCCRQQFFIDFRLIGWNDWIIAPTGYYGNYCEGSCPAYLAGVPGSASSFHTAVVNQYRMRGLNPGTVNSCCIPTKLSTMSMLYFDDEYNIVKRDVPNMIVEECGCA

In the next test the target is T6, BMP9 (UniProt Q9UK05).
T6 sequence (looked up): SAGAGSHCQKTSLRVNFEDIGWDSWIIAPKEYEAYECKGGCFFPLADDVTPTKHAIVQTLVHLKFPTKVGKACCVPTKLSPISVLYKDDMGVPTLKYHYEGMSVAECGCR

ActRIIB-G1Fc (SEQ ID NO: 5) (Fc fusion), sequence (chain): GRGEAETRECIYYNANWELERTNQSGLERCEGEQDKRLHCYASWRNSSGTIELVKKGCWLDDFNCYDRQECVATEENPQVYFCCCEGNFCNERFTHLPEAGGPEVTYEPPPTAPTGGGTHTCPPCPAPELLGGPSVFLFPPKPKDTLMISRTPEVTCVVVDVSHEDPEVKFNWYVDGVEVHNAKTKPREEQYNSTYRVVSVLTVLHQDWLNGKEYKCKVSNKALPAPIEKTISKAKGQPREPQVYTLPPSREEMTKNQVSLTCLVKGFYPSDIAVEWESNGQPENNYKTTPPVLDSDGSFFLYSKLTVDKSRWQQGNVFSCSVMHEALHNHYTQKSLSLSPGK

With ActRIIB(F82T)-G1Fc (Fc fusion), the IC50 (nM); A204 CAGA12 luciferase reporter with BMP10 was 0.07 nM; with GDF11, 0.27 nM; in the test with GDF8, 2.17 nM; with activin A it was 0.1 nM; with activin B it was 0.09 nM.

On to ActRIIB(F82W, N83A)-G1Fc (Fc fusion), for which the IC50 (ng/mL); A204 CAGA12 luciferase reporter in the test with BMP9 is 40000 ng/mL; with GDF11 it was 389 ng/mL.

Regarding ActRIIB(L79K)-G1Fc (Fc fusion), the IC50 (ng/mL); A204 CAGA12 luciferase reporter with GDF11 was determined as 477 ng/mL.

As to ActRIIB-Fc A24N (Fc fusion), the IC50 (ng/mL); A204 CAGA12 luciferase reporter with BMP9 was 409 ng/mL; with GDF11 it was 99 ng/mL; in the test with activin A it was 128 ng/mL.

Consider ActRIIB-Fc E50K (Fc fusion), for which the figures for the IC50 (ng/mL); A204 CAGA12 luciferase reporter with BMP9, with GDF11 and with activin A were 721 ng/mL, 180 ng/mL and 132 ng/mL, respectively.

With ActRIIB-Fc E50P (Fc fusion), the IC50 (ng/mL); A204 CAGA12 luciferase reporter with BMP9 came out at 3000 ng/mL; in the test with GDF11 it was 638 ng/mL; with activin A, 756 ng/mL.

Regarding ActRIIB-Fc E52A (Fc fusion), the figures for the IC50 (ng/mL); A204 CAGA12 luciferase reporter in the test with BMP9, with GDF11 and with activin A were 359 ng/mL, 71 ng/mL and 198 ng/mL, respectively.

Consider ActRIIB-Fc E52K (Fc fusion), for which the values for the IC50 (ng/mL); A204 CAGA12 luciferase reporter with BMP9, with GDF11 and in the test with activin A were 10000 ng/mL, 296 ng/mL and 762 ng/mL, respectively.

In turn, ActRIIB-Fc F82W (Fc fusion) gave an IC50 (ng/mL); A204 CAGA12 luciferase reporter in the test with GDF11 of 276 ng/mL.

On to ActRIIB-Fc K55D (Fc fusion), for which the IC50 (ng/mL); A204 CAGA12 luciferase reporter with BMP9 came to 5500 ng/mL; in the test with GDF11, 365 ng/mL; with activin A, 396 ng/mL.

For ActRIIB-Fc K55R (Fc fusion), the results for the IC50 (ng/mL); A204 CAGA12 luciferase reporter in the test with BMP9, with GDF11 and in the test with activin A were 777 ng/mL, 318 ng/mL and 206 ng/mL, respectively.

Take ActRIIB-Fc K74R (Fc fusion): the IC50 (ng/mL); A204 CAGA12 luciferase reporter is 165 ng/mL in the test with BMP9 and 45 ng/mL with GDF11.

In the test with GDF11, ActRIIB-Fc L79R (Fc fusion) displayed an IC50 (ng/mL); A204 CAGA12 luciferase reporter of 234 ng/mL.

For ActRIIB-Fc R40A (Fc fusion), the figures for the IC50 (ng/mL); A204 CAGA12 luciferase reporter with BMP9 and with GDF11 were 1210 ng/mL and 591 ng/mL, respectively.

In the case of ActRIIB-Fc Y60K (Fc fusion), the IC50 (ng/mL); A204 CAGA12 luciferase reporter with GDF11 was determined as 414 ng/mL.

In the case of ActRIIB-Fc Y60P (Fc fusion), in the test with GDF11, the IC50 (ng/mL); A204 CAGA12 luciferase reporter came out at 544 ng/mL.

For the substance ActRIIB-G1Fc (SEQ ID NO: 5) (Fc fusion), the IC50 (nM); A204 CAGA12 luciferase reporter with BMP10 turned out to be 0.036 nM; with BMP9, 1.82 nM; with GDF11, 0.12 nM; with GDF8, 0.95 nM; with activin A, 0.05 nM; with activin B, 0.067 nM. The IC50 (ng/mL); A204 CAGA12 luciferase reporter in the test with BMP9 was 31 ng/mL; in the test with GDF11, 9 ng/mL; with activin A it was 8 ng/mL.
